{
  "source": "patent US12497460B2",
  "about": "“Anti-MSR1 antibodies and methods of use thereof” (REGENERON PHARMACEUTICALS, INC., priority 2018, dated 2025)",
  "molecules": {"B1": {"name": "H1H21227N-N297Q: \"modified versions of 21227N (H1H21227N-N297Q and H1H21227N-N297D)\"; anti-MSR1 antibody \"with a N297Q single point mutation\" (antibody, V domains shown)", "VH": "QVQLVQSGAEVKKPGASVKVSCKVSGYTLTELSIHWVRQVPGKGLEWMGGFDPEEGETIFAQEFRDRVTLTEDTSPDTAYMELSSLKSEDAAVYYCTTPRYCNNGICYDYWGQGTLVTVSS", "VL": "DIQMTQSPSSLSASVGDRVTITCRASQSISNYLNWYQQKPGKAPKLLIYTASSLQSGVPSRFSGSGSGTDFTLTISSLQTEDFATYYCQQSYSNFPITFGQGTRLEIKR"}, "B2": {"name": "H1H21231N: \"anti-MSR1 antibodies ... (21227N, 21231N, 21234N) were produced with the original human Fcγ portion\"; \"H1H\" = human IgG1 Fc (antibody, V domains shown)", "VH": "EVQLVESGGGLVQPGGSLRLSCAASGFTFSDHYMDWVRQAPGKGLEWVGRTRNKANSHTTEYTASVTGRFTISRDDSRNSLYLQMNSLKTEDTAVYYCVRAGIIGTLFDYWGQGTLVTVSS", "VL": "B1 VL with S7F, N31S, Y32F, Y36F, L46F, T50A, T80P, N94S, F95P", "modifications": "human IgG1 Fc", "notes": "\"anti-MSR1 antibodies ; (21227N, 21231N, 21234N) were produced with the original human Fcγ portion\"; \"H1H\" = human IgG1 Fc"}, "B3": {"name": "H1H21227N: \"anti-MSR1 antibodies ... (21227N, 21231N, 21234N) were produced with the original human Fcγ portion\"; \"H1H\" = human IgG1 Fc (antibody, V domains shown)", "VH": "B1 VH", "VL": "B1 VL", "modifications": "human IgG1 Fc", "notes": "as for B2"}, "B4": {"name": "H1H21227N-N297D: \"The 21227N antibody was also produced as a third version with a N297D mutation\" (antibody, V domains shown)", "VH": "B1 VH", "VL": "B1 VL"}},
  "key": {"[1]": {"molecular_target": "T1, MSR1-mediated Dil-OxLDL uptake in HEK293.Myc.hMSR1 cells (Homo sapiens, UniProt P21757)", "T1 construct": "expressed in transfected cells; host or cells: HEK293 (lentiviral transduction, hygromycin selection)", "T1 sequence (P21757 1-451)": "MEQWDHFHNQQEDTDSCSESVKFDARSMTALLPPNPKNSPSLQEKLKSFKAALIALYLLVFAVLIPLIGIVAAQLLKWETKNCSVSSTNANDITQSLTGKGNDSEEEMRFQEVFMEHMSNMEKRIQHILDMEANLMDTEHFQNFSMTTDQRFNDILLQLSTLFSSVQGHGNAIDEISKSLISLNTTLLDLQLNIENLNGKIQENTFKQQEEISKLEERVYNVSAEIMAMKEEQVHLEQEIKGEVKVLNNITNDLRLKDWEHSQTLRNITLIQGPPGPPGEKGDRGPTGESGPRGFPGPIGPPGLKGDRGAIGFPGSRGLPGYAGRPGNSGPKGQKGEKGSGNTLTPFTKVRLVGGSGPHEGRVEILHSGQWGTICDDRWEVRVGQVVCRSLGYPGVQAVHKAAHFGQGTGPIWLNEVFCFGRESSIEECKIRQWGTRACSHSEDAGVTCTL", "assay": "Ligand uptake assay, Dil-OxLDL", "assay_type": "cell-based", "details": "10 μg/mL Dil-OxLDL; for IC50: read-out: Dil-Oxidized LDL IC50; for Dil-Oxidized LDL % Inhibition: maximum inhibition", "description": "A bioassay was generated to assess the ability of the exemplary anti-MSR1 antibodies to regulate the uptake of certain MSR1 ligands.\nGeneration of MSR1-expressing cell lines for assay. […] The resulting cell line, referred to here as “HEK293.Myc.hMSR1”, was selected and maintained in DMEM containing 10% FIBS, NEAA, penicillin/streptomycin, L-glutamine, and 100 μg/mL hygromycin.\nLigand uptake assay. […] After 30 minutes, either oxidized or acetylated low-density lipoprotein (LDL) labeled with 1,1′dioctadecyl-3,3,3′,3′-tetramethylindocarbocyanine perchlorate (referred to as “Dil-OxLDL” or “Dil-AcLDL,” respectively) was added to the cells at a constant concentration of 10 μg/mL. […] Results were analyzed using nonlinear regression (4-parameter logistics) with the Prism 7 program to obtain EC50 and IC50 values. The percentage of inhibition was calculated with the Relative Fluorescent Unit (RFU) values by using the following equation: […]\nIn the equation, “RFUBaseline” is the fluorescence value from the cells treated with 10 μg/mL ligand without antibodies, “RFUInhibition” is the minimum fluorescence value with for a particular antibody with 10 μg/mL ligand, and “RFUBackground” is the fluorescence value from cells without any ligand or antibodies."}, "[2]": {"molecular_target": "T2, PMA-treated THP-1 cells (endogenously expressed human MSR1) (Homo sapiens, UniProt P21757)", "T2 construct": "endogenous in cells; host or cells: THP-1 cells differentiated with PMA", "T2 sequence (P21757 1-451)": "T1 sequence (P21757 1-451)", "assay": "Electrochemiluminescence antibody binding assay on MSR1-expressing cells", "assay_type": "cell-based"}, "[3]": {"molecular_target": "T3, HEK293.Myc.hMSR1 cells (human MSR1) (Homo sapiens, UniProt P21757)", "T3 construct": "expressed in transfected cells; host or cells: HEK293 (lentiviral transduction, hygromycin selection)", "T3 sequence (P21757 1-451)": "T1 sequence (P21757 1-451)", "assay": "Electrochemiluminescence antibody binding assay on MSR1-expressing cells", "assay_type": "cell-based"}, "[4]": {"tested_on": "HEK293.mfMSR1 cells (monkey MSR1)", "assay": "Electrochemiluminescence antibody binding assay on MSR1-expressing cells", "assay_type": "cell-based, Macaca fascicularis"}, "[5]": {"molecular_target": "T4, MSR1 on differentiated THP-1 cells (Homo sapiens, UniProt P21757)", "T4 construct": "endogenous in cells; host or cells: THP-1 cells differentiated with PMA", "T4 sequence (P21757 1-451)": "T1 sequence (P21757 1-451)", "assay": "Binding and internalization of cell-surface expressed MSR1 in differentiated THP-1 cells", "assay_type": "cell-based", "details": "10 μg/mL antibody", "description": "Exemplary anti-MSR1 antibodies were assessed for their ability to bind and internalize MSR1 on MSR1-expressing cells.\nThe THP-1 cells were allowed to differentiate for 4 days at 37° C. in 5% CO2. […] The remaining two plates were incubated at 37° C. for 1 hour followed by fixation and staining for 20 minutes using a solution of 4% PFA+5 μM DRAQ5 diluted in PBS (internalization plates). After fixation, all plates were washed once with PBS. […] The remaining plates were incubated with PBS only. Confocal images were acquired on the Opera Phenix (Perkin Elmer) at 40× magnification. […] The total binding at 4° C. (RFU values of 4° C. unquenched wells), total binding at 37° C. (RFU values of 37° C. unquenched wells), the total internalized RFU, and % Internalization were determined for each antibody as shown in Table 14.\nFor all calculations, background fluorescence from unstained wells was subtracted from every well. Total internalized RFU was calculated as follows: Total RFU of 37° C. unquenched samples−Surface RFU at 37° C. Surface RFU is defined as unquenched RFU at 37° C.−quenched RFU at 37° C.)/QE. QE (quenching efficiency) is defined as: 1−(Total RFU of 4° C. quenched sample/Total RFU of 4° C. unquenched sample). The % Internalization was determined from the following formula: (Total internalized RFU at 37° C./Total RFU at 37° C.)*100."}, "[6]": {"tested_on": "B16F10.9 cells (MSR1 negative)", "assay": "Flow cytometry binding, MSR1 negative cells", "assay_type": "cell-based, mouse", "details": "10 μg/mL antibody", "description": "Relative cell surface binding of the anti-MSR1 antibodies to mouse MSR1 expressing cells was determined by flow cytometry using MSR1 positive RAW264.7 cells (ATCC, Catalog #TIB-71) and MSR1 negative B16F10.9 cells (Lin et al. 1998. PNAS 95:8829-8834). For the assay, cells were plated in PBS without calcium and magnesium (VWR Cat #45000-446) and 2% FBS (Saradigm Cat #1500-500) (Staining Buffer) in 96 well V-bottom plates (Axygen Scientific, Cat #P-96-450-V-C-S). To block binding to Fc receptors, RAW264.7 cells were incubated for 30 minutes at 4° C. with 500 μg/mL mouse IgG (Jackson ImmunoResearch, Cat #015-000-003) diluted in staining buffer, while B16F10.9 cells remained in staining buffer. Following Fc receptor blocking, 10 μg/mL of anti-MSR1 antibodies or an isotype control antibody were added to the cells and were subsequently incubated for 30 minutes on ice. For a positive control, a commercial anti-mouse MSR1 (Sino Biological, Cat #50129-R004) antibody was used, while a rabbit IgG antibody (Thermo Scientific, Cat #26102) was used as a negative control. […] Cells were subsequently washed and fixed using a 50% solution of Cytofix (BD Biosciences, Cat #554655) diluted in PBS. […] The signal to noise (S/N) was determined by calculating the ratio of the anti-MSR1 antibodies or the control antibodies MFI to the unstained sample MFI (Table 11)."}},
  "note": "Changes are numbered by the printed parent chain. Numbers in names are those of the source.",
  "data": [
    {"molecule": "B1", "values": [
      {"measurement": "IC50", "setting": "[1]", "result": 1.8, "unit": "nM"},
      {"measurement": "Dil-Oxidized LDL % Inhibition", "setting": "[1]", "result": 94, "unit": "%"},
      {"measurement": "Ratio of 11 nM Antibody Binding Signal (RLU) to isotype control, PMA-treated THP-1", "setting": "[2]", "result": 5},
      {"measurement": "Ratio of 11 nM Antibody Binding Signal (RLU) to isotype control, HEK293.Myc.hMSR1", "setting": "[3]", "result": 37},
      {"measurement": "Ratio of 11 nM Antibody Binding Signal (RLU) to isotype control, HEK293.mfMSR1", "setting": "[4]", "result": 23},
      {"measurement": "% Internalization", "setting": "[5]", "result": 78.5, "unit": "%"},
      {"measurement": "Total Binding at 4° C.", "setting": "[5]; 4° C.", "result": 1800012},
      {"measurement": "Total Binding at 37° C.", "setting": "[5]; 37° C.", "result": 4110990},
      {"measurement": "Total Internalized RFU", "setting": "[5]; 37° C.", "result": 3226161, "unit": "RFU"},
      {"measurement": "B16F10.9 MFI", "setting": "[6]", "result": 3287},
      {"measurement": "B16F10.9 S/N", "setting": "[6]", "result": 1}
    ]},
    {"molecule": "B2", "values": [
      {"measurement": "IC50", "setting": "[1]", "result": 3.6, "unit": "nM"},
      {"measurement": "Dil-Oxidized LDL % Inhibition", "setting": "[1]", "result": 78, "unit": "%"},
      {"measurement": "Ratio of 11 nM Antibody Binding Signal (RLU) to isotype control, PMA-treated THP-1", "setting": "[2]", "result": 42},
      {"measurement": "Ratio of 11 nM Antibody Binding Signal (RLU) to isotype control, HEK293.Myc.hMSR1", "setting": "[3]", "result": 61},
      {"measurement": "Ratio of 11 nM Antibody Binding Signal (RLU) to isotype control, HEK293.mfMSR1", "setting": "[4]", "result": 75}
    ]},
    {"molecule": "B3", "values": [
      {"measurement": "IC50", "setting": "[1]", "result": 2, "unit": "nM"},
      {"measurement": "Dil-Oxidized LDL % Inhibition", "setting": "[1]", "result": 89, "unit": "%"},
      {"measurement": "Ratio of 11 nM Antibody Binding Signal (RLU) to isotype control, PMA-treated THP-1", "setting": "[2]", "result": 7},
      {"measurement": "Ratio of 11 nM Antibody Binding Signal (RLU) to isotype control, HEK293.Myc.hMSR1", "setting": "[3]", "result": 37},
      {"measurement": "Ratio of 11 nM Antibody Binding Signal (RLU) to isotype control, HEK293.mfMSR1", "setting": "[4]", "result": 26}
    ]},
    {"molecule": "B4", "values": [
      {"measurement": "Ratio of 11 nM Antibody Binding Signal (RLU) to isotype control, PMA-treated THP-1", "setting": "[2]", "result": 6},
      {"measurement": "Ratio of 11 nM Antibody Binding Signal (RLU) to isotype control, HEK293.Myc.hMSR1", "setting": "[3]", "result": 34},
      {"measurement": "Ratio of 11 nM Antibody Binding Signal (RLU) to isotype control, HEK293.mfMSR1", "setting": "[4]", "result": 25}
    ]}
  ]
}
